# Data from patent US20260125454A1 (SHANGHAI JUNSHI BIOSCIENCES, published 2026).
# T1: Biotin-huCGRPaSA (human, not fully specified; biotin (position not given))
# T1 construct: exact construct ('aSA') not explained; also called Biotin CGRPaSA; full-length (1-37) CGRP
# T1 peptide: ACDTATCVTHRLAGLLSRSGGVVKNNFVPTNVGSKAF
# Experiments:
# CGRP antigen = assay: cell-based or functional assay
# Biotin-huCGRPaSA = target: T1, Biotin-huCGRPaSA; assay: ELISA, supernatant; relative to chimeric C245
# Method in brief: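 Plates coated with biotin-CGRPaSA at 1.0 μg/mL (90 min, 37°C) and blocked with 2% BSA. Humanized antibodies and chimeric C245 reference, 2.5-fold serial dilutions from 1000 ng/mL, bound 60 min at 37°C. Detection by HRP anti-human IgG (Fc), TMB 15 min, read at 450/620 nm.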
Binder,IC50 (CGRP antigen),relative activity (%) vs Ref(TEVA) (CGRP antigen),"Relative binding activity, % (Biotin-huCGRPaSA)",relative activity (%) vs C245 (CGRP antigen)
"hu86 (antibody, V domains shown, 1F5 HC-5/1F5 LC1-4) VH: QVQLVQSGAEVKKPGASVKVSCKASGYTFIDFNMHWVRQAPGQRLEWMGYIYPYNADVVYNQDFTNRVTLTVDTSSSTAYMELSSLRSEDTAVYYCAREGLGGYWGQGTLVTVSS VL: DIVLTQSPDSLAVSLGERATINCKASQNIDFDGYAYMNWYQHKPGQPPKVLIYSVFNLESGVPDRFSGSGSGTDFTLTISSLQAEDVAVYYCQQSHEVPYTFGQGTKLEIK",0.134 µg/mL,35%,118%,–
"hu77 (antibody, V domains shown, 1F5 HC-4/3H10 LC2-1) VH: QVQLVQSGSELKKPGASVKVSCKASGYTFTDFNMHWVRQAPGQGLEWMGYIYPYNGDVVYNQNFTNRFVLSVDSSSSTAYLQISSLKAEDTAVYYCAREGLGGYWGQGTLVTVSS VL: DIVLTQSPDSLAVSLGERATINCKASQNIDYGGYSYMNWYQQKPGQPPKVLIYSVFNLESGVPDRFSGSGSGTDFTLTISSLQAEDVAVYYCQQSNEAPYTFGQGTKLEIK",0.0778 µg/mL,55%,112%,–
"hu76 (antibody, V domains shown, 1F5 HC-4/3E5 LC-1) VH: QVQLVQSGSELKKPGASVKVSCKASGYTFTDFNMHWVRQAPGQGLEWMGYIYPYNGDVVYNQNFTNRFVLSVDSSSSTAYLQISSLKAEDTAVYYCAREGLGGYWGQGTLVTVSS VL: DIVLTQSPDSLAVSLGERATINCKASQNIDYDGYTYLNWYQQKPGQPPKVLIYSIFNLESGVPDRFSGSGSGTDFTLTISSLQAEDVAVYYCQQSNEVPYTFGQGTKLEIK",0.0649 µg/mL,66%,112%,–
"hu74 (antibody, V domains shown, 1F5 HC-4/2B8 LC2-1) VH: QVQLVQSGSELKKPGASVKVSCKASGYTFTDFNMHWVRQAPGQGLEWMGYIYPYNGDVVYNQNFTNRFVLSVDSSSSTAYLQISSLKAEDTAVYYCAREGLGGYWGQGTLVTVSS VL: DIVLTQSPDSLAVSLGERATINCQASQNIDGNTYMNWYQQKPGQPPKVLIYSIFNLESGVPDRFSGSGSGTDFTLTISSLQAEDVAVYYCQQSNDYPYTFGQGTKLEIK",0.0739 µg/mL,58%,112%,–
"hu66 (antibody, V domains shown, 1F5 HC-4/1A2 LC2-1) VH: QVQLVQSGSELKKPGASVKVSCKASGYTFTDFNMHWVRQAPGQGLEWMGYIYPYNGDVVYNQNFTNRFVLSVDSSSSTAYLQISSLKAEDTAVYYCAREGLGGYWGQGTLVTVSS VL: DIVLTQSPASLAVSPGQRATITCKASQNIDYDGYAYLNWYQQKPGQPPKVLIYSVFNLESGVPARFSGSGSGTDFTLTINPVEANDTANYYCQQSNEFPYTFGQGTKLEIK",0.0566 µg/mL,89%,129%,–
"hu226 (antibody, V domains shown, 3C1 HC-2/3C1 LC-1) VH: QVQLVQSGAEVKKPGASVKVSCKASGYTFTGYTMNWVRQAPGQRLEWMGLINPYIGNTHYNQKFKDRVTFTVDRSSSTAYMELSSLRSEDTAVYYCARELDSGFDYWGQGTLVTVSS VL: DVVMTQSPLSLPVTLGQPASISCRSSQNIVHSNGDTYLEWYQQRPGQSPRLLIYKVSNRFSGVPDRFSGSGSGTDFTLKISRVEAEDVGVYYCYQGSHVPWTFGQGTKLEIK",0.0446 µg/mL,–,65%,53%
"hu229 (antibody, V domains shown, 3C1 HC-2/3C1 LC-4) VH: QVQLVQSGAEVKKPGASVKVSCKASGYTFTGYTMNWVRQAPGQRLEWMGLINPYIGNTHYNQKFKDRVTFTVDRSSSTAYMELSSLRSEDTAVYYCARELDSGFDYWGQGTLVTVSS VL: DVVMTQSPDSLAVSLGERATINCRSSQNIVHSNADTYLEWYQQKPGQPPKLLIYKVSNRFSGVPDRFSGSGSGTDFTLTISSLQAEDVAVYYCYQGSHVPWTFGQGTKLEIK",0.0851 µg/mL,–,48%,28%
"hu230 (antibody, V domains shown, 3C1 HC-3/3C1 LC-1) VH: QVQLVQSGSELKKPGASVKVSCKASGYTFTGYTMNWVRQAPGQGLEWMGLINPYIGNTHYNQKFKDRFVFSVDRSSSTAYLQISSLKAEDTAVYYCARELDSGFDYWGQGTLVTVSS VL: DVVMTQSPLSLPVTLGQPASISCRSSQNIVHSNGDTYLEWYQQRPGQSPRLLIYKVSNRFSGVPDRFSGSGSGTDFTLKISRVEAEDVGVYYCYQGSHVPWTFGQGTKLEIK",0.0464 µg/mL,–,64%,56%
"hu227 (antibody, V domains shown, 3C1 HC-2/3C1 LC-2) VH: QVQLVQSGAEVKKPGASVKVSCKASGYTFTGYTMNWVRQAPGQRLEWMGLINPYIGNTHYNQKFKDRVTFTVDRSSSTAYMELSSLRSEDTAVYYCARELDSGFDYWGQGTLVTVSS VL: DVVMTQTPLSLSVTPGQPASISCRSSQNIVHSNGDTYLEWYLQKPGQSPQLLIYKVSNRFSGVPDRFSGSGSGTDFTLKISRVEAEDVGVYYCYQGSHVPWTFGQGTKLEIK",0.0368 µg/mL,–,64%,64%
"hu222 (antibody, V domains shown, 3C1 HC-1/3C1 LC-1) VH: QVQLVQSGAEVKKPGASVKVSCKASGYSFTGYTMNWVRQAPGQRLEWMGLINPYIGNTHYNQKFKDRVTFTVDRSSSTAYMELSSLRSEDTAVYYCARELDSGFDYWGQGTLVTVSS VL: DVVMTQSPLSLPVTLGQPASISCRSSQNIVHSNGDTYLEWYQQRPGQSPRLLIYKVSNRFSGVPDRFSGSGSGTDFTLKISRVEAEDVGVYYCYQGSHVPWTFGQGTKLEIK",0.039 µg/mL,–,65%,46%
"hu234 (antibody, V domains shown, 3C1 HC-4/3C1 LC-1) VH: QVQLVQSGAEVKKPGASVKVSCKASGYTFTGYTMNWVRQAPGQGLEWMGLINPYIGNTHYNQKFKDRVTFTVDRSSSTAYMELSRLRSDDTAVYYCARELDSGFDYWGQGTLVTVSS VL: DVVMTQSPLSLPVTLGQPASISCRSSQNIVHSNGDTYLEWYQQRPGQSPRLLIYKVSNRFSGVPDRFSGSGSGTDFTLKISRVEAEDVGVYYCYQGSHVPWTFGQGTKLEIK",0.0429 µg/mL,–,50%,65%
"hu236 (antibody, V domains shown, 3C1 HC-4/3C1 LC-3) VH: QVQLVQSGAEVKKPGASVKVSCKASGYTFTGYTMNWVRQAPGQGLEWMGLINPYIGNTHYNQKFKDRVTFTVDRSSSTAYMELSRLRSDDTAVYYCARELDSGFDYWGQGTLVTVSS VL: DVVMTQSPDSLAVSLGERATINCRSSQNIVHSNGDTYLEWYQQKPGQPPKLLIYKVSNRFSGVPDRFSGSGSGTDFTLTISSLQAEDVAVYYCYQGSHVPWTFGQGTKLEIK",0.0514 µg/mL,–,68%,55%
"hu228 (antibody, human IgG4 S228P, kappa, V domains shown) VH: QVQLVQSGAEVKKPGASVKVSCKASGYTFTGYTMNWVRQAPGQRLEWMGLINPYIGNTHYNQKFKDRVTFTVDRSSSTAYMELSSLRSEDTAVYYCARELDSGFDYWGQGTLVTVSS VL: DVVMTQSPDSLAVSLGERATINCRSSQNIVHSNGDTYLEWYQQKPGQPPKLLIYKVSNRFSGVPDRFSGSGSGTDFTLTISSLQAEDVAVYYCYQGSHVPWTFGQGTKLEIKR",0.0267 µg/mL,–,68%,88%
"hu232 (antibody, V domains shown, 3C1 HC-3/3C1 LC-3) VH: QVQLVQSGSELKKPGASVKVSCKASGYTFTGYTMNWVRQAPGQGLEWMGLINPYIGNTHYNQKFKDRFVFSVDRSSSTAYLQISSLKAEDTAVYYCARELDSGFDYWGQGTLVTVSS VL: DVVMTQSPDSLAVSLGERATINCRSSQNIVHSNGDTYLEWYQQKPGQPPKLLIYKVSNRFSGVPDRFSGSGSGTDFTLTISSLQAEDVAVYYCYQGSHVPWTFGQGTKLEIK",0.044 µg/mL,–,70%,59%
"hu235 (antibody, V domains shown, 3C1 HC-4/3C1 LC-2) VH: QVQLVQSGAEVKKPGASVKVSCKASGYTFTGYTMNWVRQAPGQGLEWMGLINPYIGNTHYNQKFKDRVTFTVDRSSSTAYMELSRLRSDDTAVYYCARELDSGFDYWGQGTLVTVSS VL: DVVMTQTPLSLSVTPGQPASISCRSSQNIVHSNGDTYLEWYLQKPGQSPQLLIYKVSNRFSGVPDRFSGSGSGTDFTLKISRVEAEDVGVYYCYQGSHVPWTFGQGTKLEIK",0.0619 µg/mL,–,74%,45%
"hu225 (antibody, V domains shown, 3C1 HC-1/3C1 LC-4) VH: QVQLVQSGAEVKKPGASVKVSCKASGYSFTGYTMNWVRQAPGQRLEWMGLINPYIGNTHYNQKFKDRVTFTVDRSSSTAYMELSSLRSEDTAVYYCARELDSGFDYWGQGTLVTVSS VL: DVVMTQSPDSLAVSLGERATINCRSSQNIVHSNADTYLEWYQQKPGQPPKLLIYKVSNRFSGVPDRFSGSGSGTDFTLTISSLQAEDVAVYYCYQGSHVPWTFGQGTKLEIK",0.185 µg/mL,–,52%,10%
"hu223 (antibody, V domains shown, 3C1 HC-1/3C1 LC-2) VH: QVQLVQSGAEVKKPGASVKVSCKASGYSFTGYTMNWVRQAPGQRLEWMGLINPYIGNTHYNQKFKDRVTFTVDRSSSTAYMELSSLRSEDTAVYYCARELDSGFDYWGQGTLVTVSS VL: DVVMTQTPLSLSVTPGQPASISCRSSQNIVHSNGDTYLEWYLQKPGQSPQLLIYKVSNRFSGVPDRFSGSGSGTDFTLKISRVEAEDVGVYYCYQGSHVPWTFGQGTKLEIK",0.0353 µg/mL,–,71%,51%
"hu233 (antibody, V domains shown, 3C1 HC-3/3C1 LC-4) VH: QVQLVQSGSELKKPGASVKVSCKASGYTFTGYTMNWVRQAPGQGLEWMGLINPYIGNTHYNQKFKDRFVFSVDRSSSTAYLQISSLKAEDTAVYYCARELDSGFDYWGQGTLVTVSS VL: DVVMTQSPDSLAVSLGERATINCRSSQNIVHSNADTYLEWYQQKPGQPPKLLIYKVSNRFSGVPDRFSGSGSGTDFTLTISSLQAEDVAVYYCYQGSHVPWTFGQGTKLEIK",0.0877 µg/mL,–,68%,30%
